Experimental data: paper PMC12017799, “Molecular mechanism of SmMYB53 activates the expression of SmCYP71D375, thereby modulating tanshinone accumulation in Salvia miltiorrhiza”

Target: SmMYB53 (Salvia miltiorrhiza, UniProt A0A059PSP0 1-372)
Experiment: EMSA; SmMYB53 alone; LightShift Chemiluminescent EMSA kit (Beyotime) binding buffer, >30 min at 4 C; unlabeled competitor 10-fold; salt and pH not stated
Details: protein: recombinant; tags: His (pCold); label: biotin; blunt

Chain of SmMYB53 (A0A059PSP0 entry or part of it): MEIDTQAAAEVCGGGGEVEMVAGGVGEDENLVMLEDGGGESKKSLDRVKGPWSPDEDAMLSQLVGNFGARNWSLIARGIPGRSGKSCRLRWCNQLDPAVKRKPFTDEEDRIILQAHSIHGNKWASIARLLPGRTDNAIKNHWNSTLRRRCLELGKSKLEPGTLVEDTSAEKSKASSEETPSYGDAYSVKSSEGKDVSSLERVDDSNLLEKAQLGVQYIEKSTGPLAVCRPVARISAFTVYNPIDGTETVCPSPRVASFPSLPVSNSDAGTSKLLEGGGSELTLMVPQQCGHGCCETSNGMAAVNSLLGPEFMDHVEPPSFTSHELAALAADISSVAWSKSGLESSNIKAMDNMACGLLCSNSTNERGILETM

| Binder | binding result |
| --- | --- |
| MBS2 probe (SmCYP71D375 promoter) (dsDNA) DNA 1: AGATCCGTTGGAGAAGATCCGTTGGAGAAGATCCGTTGGAGA DNA 2: TCTCCAACGGATCTTCTCCAACGGATCTTCTCCAACGGATCT | binds |
| MBS1 probe (SmCYP71D375 promoter) (dsDNA) DNA 1: GCTTCAGTTGAGCTGCTTCAGTTGAGCTGCTTCAGTTGAGCT DNA 2: AGCTCAACTGAAGCAGCTCAACTGAAGCAGCTCAACTGAAGC | binds |
